Paper doi:10.1101/287425

Target: pyrene-labeled actin (rabbit skeletal muscle F-actin) (rabbit) (UniProt P68135)
Assay: other fluorescence titration

relative pyrene-actin fluorescence after addition of 2.0 mM MgATP: 0.95
stoichiometry N (myosin heads per actin): 1
Substance: single-headed S1 fragment of bovine ventricular cardiac myosin (from UniProt Q9BE39 1-1935; P85100 1-199) (complex)
